Laboratory results as given in patent US20190031713A1 (Regeneron, published 2019).
Numbering of substitutions follows the chain as printed.

B1: differentially modified heterodimeric human IgG2 Fc/ΔAdpFc (other)
chain 1: ERKCCVECPPCPAPPVAGPSVFLFPPKPKDTLMISRTPEVTCVVVDVSHEDPEVQFNWYVDGVEVHNAKTKPREEQFNSTFRVVSVLTVVHQDWLNGKEYKCKVSNKGLPAPIEKTISKTKGQPREPQVYTLPPSREEMTKNQVSLTCLVKGFYPSDIAVEWESNGQPENNYKTTPPMLDSDGSFFLYSKLTVDKSRWQQGNVFSCSVMHEALHNHYTQKSLSLSPGK
chain 2: B1 chain 1 with H216R, Y217F
B2: unmodified human homodimeric IgG2 Fc/Fc (other, UniProt P01859-1 99-326, looked up)
chain: B1 chain 1 with A159S
notes: domain: Fc; also called hIgG2 Fc/Fc; hIgG2

Molecular target: T1, Protein A (on chromatography support) (UniProt P38507 37-327)
T1 construct: Commercial recombinant Protein A resins; also called rProtein A FF; NAb Protein A Plus
Experiment: rProtein A FF column, pH gradient, 20 mM sodium citrate, 1 M NaCl
Method: The solvent system consisted of solvent A (PBS, 1×), solvent B (20 mM sodium citrate and 1 M NaCl, pH 5.5) and solvent C (20 mM sodium citrate and 1M NaCl, pH 2.5). The elution started with an isocratic elution with 100% A in the first 20 min followed by a quick switch to 100% B at 20 min. […] A linear gradient from 33.5% C to 100% C was followed for 30 min. The flow rate was kept 250 microliters/min and the chromatograms were detected at 280 nm by a UV detector.

Row | Binder | elution pH from Protein A column [pH]
1 | B1 | 4.5
2 | B2 | 3.5
